Measured values from the supplement of paper PMC7125110.
± gives the standard error. Fewer inactive variants are shown than the library holds.

B1: glmS ribozyme (parent)
chain: AUAAAAGCGCCAGAACUACAGAAAUGUAGUUGACGAGGAGGAGGUUUAUCGAAUUUUCGGCGGAUGCCUCCAAA

Experiments:
Conditions in all cases: with glucosamine-6-phosphate
[1] = variants of: B1; assay: self-cleavage kobs at 40 uM GlcN6P; higher = faster cleavage; RNA array
In short: (§1)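 Glucosamine-6-phosphate, from 40 μM to 10 mM in HEPES/KCl/Mg(OAc)2 buffer, was flowed over sequenced MiSeq chips carrying barcoded ribozyme variants transcribed in situ by E. coli RNA polymerase. A hybridised Cy3 probe tracked the variants at 37 °C as tiles were imaged over ~14 h. kobs, kcat and KM were obtained by fitting normalised per-tile medians to exponential decays and then applying weighted Michaelis–Menten fits across concentrations.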

[2] = variants of: B1; assay: self-cleavage kobs at 160 uM GlcN6P; higher = faster cleavage; RNA array
In short: as §1

[3] = variants of: B1; assay: self-cleavage kobs at 640 uM GlcN6P; higher = faster cleavage; RNA array
In short: as §1

[4] = variants of: B1; assay: self-cleavage kobs at 2500 uM GlcN6P; higher = faster cleavage; RNA array
In short: as §1

[5] = variants of: B1; assay: self-cleavage kobs at 10000 uM GlcN6P; higher = faster cleavage; RNA array
In short: as §1

Variant	self-cleavage kobs at 40 uM GlcN6P [1] [s⁻¹]	self-cleavage kobs at 160 uM GlcN6P [2] [s⁻¹]	self-cleavage kobs at 640 uM GlcN6P [3] [s⁻¹]	self-cleavage kobs at 2500 uM GlcN6P [4] [s⁻¹]	self-cleavage kobs at 10000 uM GlcN6P [5] [s⁻¹]
A42U U56C G60U	< 1e-05	–	–	–	–
G40A G51A	< 1e-05	< 1e-05	< 1e-05	< 1e-05	< 1e-05
G43C U65A	< 1e-05	–	< 1e-05	< 1e-05	–
G43A U47G U54A	< 1e-05	–	–	–	–
A39U G43A C50U	< 1e-05	–	–	–	–
G41U U46A U49C C71G	< 1e-05	–	–	–	–
G43C C70G	< 1e-05	–	< 1e-05	< 1e-05	< 1e-05
G38U G51U U54G G66A	< 1e-05	–	–	–	–
A42U G59U	< 1e-05	< 1e-05	< 1e-05	–	< 1e-05
A42U G59C	< 1e-05	< 1e-05	< 1e-05	< 1e-05	< 1e-05
A39G C61U	< 1e-05	–	–	–	3.27e-05 ± 1.1e-05
A39C A42C C68G	< 1e-05	–	–	–	–
G44A U45C A48U	< 1e-05	–	–	–	–
G41A C50G C61U	< 1e-05	< 1e-05	< 1e-05	< 1e-05	< 1e-05
A39C C50U A64G	< 1e-05	–	–	–	–
A42G C67A	0.000813 ± 0.00013	0.00197 ± 0.00067	0.008 ± 0.0032	0.00552 ± 0.0024	0.0213 ± 0.0053
A42G C67U	0.000328 ± 4.2e-05	0.00136 ± 0.00031	0.00155 ± 0.00035	0.00245 ± 0.00057	0.00807 ± 0.0016
A42G U47G G63U	< 1e-05	–	–	–	–
G41A C68U	< 1e-05	< 1e-05	–	1.85e-05 ± 7.6e-06	2.09e-05 ± 8.7e-06
A42G U47G C61U U69G	< 1e-05	–	–	< 1e-05	–
G41C U57A	< 1e-05	< 1e-05	–	< 1e-05	< 1e-05
G38U U55C C67G	< 1e-05	–	< 1e-05	–	–
G43A G44U	< 1e-05	< 1e-05	< 1e-05	–	< 1e-05
A42C U65G	< 1e-05	< 1e-05	< 1e-05	–	–
